Consider four molecules from patent publication US20220249685A1 (SILVERBACK THERAPEUTICS, published 2022).

Positions count from the first letter of the chain named. In names and notes the source's numbering stands.

Assay [1] concerns the target T1, cynomolgus MSLN on transfected 293 cells (cynomolgus).
T1 construct: whole, on cells; also called cyno MSLN; cynomolgus mesothelin
Kind of assay: flow cytometry on 293 cells transiently transfected with cyno MSLN, anti-huIgG1-PE, MFI (Geo Mean).

In assay [2] the target is T2, human MSLN expressed on tumor cell lines (OVCAR3, NCI-N87) or on transfected HEK-293 cells (human, UniProt Q13421 296-598).
T2 construct: whole, on cells; also called human mesothelin
T2 sequence (Q13421 other isoform, or with tags, fused parts or gaps limits assumed): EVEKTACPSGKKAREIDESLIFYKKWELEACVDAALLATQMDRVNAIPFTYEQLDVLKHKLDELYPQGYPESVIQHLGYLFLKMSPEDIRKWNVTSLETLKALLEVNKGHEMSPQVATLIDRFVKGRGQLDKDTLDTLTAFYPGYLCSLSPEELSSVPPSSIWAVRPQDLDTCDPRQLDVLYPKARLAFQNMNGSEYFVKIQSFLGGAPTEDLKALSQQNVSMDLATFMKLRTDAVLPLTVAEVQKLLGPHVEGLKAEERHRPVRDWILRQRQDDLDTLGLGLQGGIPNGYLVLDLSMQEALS
Kind of assay: flow cytometry on NCI-N87 cells, anti-huIgG1-PE, MFI (Geo Mean).

B1: Antibody 55 (VH1-e G27Y, G55A, R66K, V67A, A71V / VKIII-L6) (antibody, V domains shown)
VH: QVQLVQSGAEVKKPGSSVKVSCKASGYTFSGYTMNWVRQAPGQGLEWMGLITPYNAASSYNQKFRGKATITVDKSTSTAYMELSSLRSEDTAVYYCARGGYDGRGFDYWGQGTTVTVSS
VL: EIVLTQSPATLSLSPGERATLSCSASSSVSYMHWYQQKPGQAPRLLIYDTSKLASGIPARFSGSGSGTDFTLTISSLEPEDFAVYYCQQWSKHPLTFGGGTKVEIK
For B1, the figures for the “EC50 (read off the curve)” value in assay [1] and in assay [2] were around 80 pM and around 100 pM, respectively.

B2: 55-IgG1-TLR8 conjugate (antibody, V domains shown)
VH: B1 VH
VL: B1 VL
modifications: cysteines freed by TCEP reduction may carry the drug-linker; positions not given; cysteines freed by TCEP reduction carry the TLR8 agonist drug-linker; positions not given
notes: also called 55-TLR8
For B2, the “EC50 (read off the curve)” value was around 100 pM in assay [1] and around 200 pM in assay [2].

B3: 56-IgG1-TLR8 conjugate (antibody, V domains shown)
VH: B1 VH with Y27G, K67R, A68V, V72A
VL: DIQMTQSPSTLSASVGDRVTITCSASSSVSYMHWYQQKPGKAPKLLIYDTSKLASGVPSRFSGSGSGTEFTLTISSLQPDDFATYYCQQWSKHPLTFGGGTKVEIK
modifications: cysteines freed by TCEP reduction may carry the drug-linker; positions not given; cysteines freed by TCEP reduction carry the TLR8 agonist drug-linker; positions not given
notes: also called 56-TLR8
Consider B3, for which the “EC50 (read off the curve)” value in assay [1] was around 200 pM; in assay [2] it was around 300 pM.

B4: Antibody 56 (VH1-e CDRgraft G55A / VKI-L12) (antibody, V domains shown)
VH: B1 VH with Y27G, K67R, A68V, V72A
VL: B3 VL
Turning to B4, the figures for the “EC50 (read off the curve)” value in assay [1] and in assay [2] were around 100 pM and around 200 pM, respectively.
